The target in this assay is T1, TRMT112 (KMT9beta) (Homo sapiens, UniProt Q9UI30 1-125).
T1 construct: TRMT112 is untagged when co-expressed with His-C21orf127 and His-tagged when expressed alone (His-TRMT112); also called His-TRMT112
T1 sequence: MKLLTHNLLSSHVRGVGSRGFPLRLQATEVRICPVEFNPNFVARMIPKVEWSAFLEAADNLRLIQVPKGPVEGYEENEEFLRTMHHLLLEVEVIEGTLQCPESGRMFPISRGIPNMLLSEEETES
Nature of the assay: gel filtration chromatography (Superose 6 10/300 GL). For orientation: Size exclusion chromatography separates by hydrodynamic size, large species first.

B1: C21orf127(N122A) (enzyme)
chain: MAGENFATPFHGHVGRGAFSDVYEPAEDTFLLLDALEAAAAELAGVEICLEVGSGSGVVSAFLASMIGPQALYMCTDINPEAAACTLETARCNKVHIQPVITDLVKGLLPRLTEKVDLLVFAPPYVVTPPQEVGSHGIEAAWAGGRNGREVMDRFFPLVPDLLSPRGLFYLVTIKENNPEEILKIMKTKGLQGTTALSRQAGQETLSVLKFTKS
notes: Co-expressed with TRMT112 as His-C21orf127(N122A)/TRMT112; also called KMT9alpha(N122A); His-C21orf127(N122A); not shown: N-terminal His tag from pDEST17 or pET-Duet1
As for B1, the binding result is given as “binds”.
